Data reported in patent US20080219970.

T1: Ir-CPI (Ixodes ricinus Contact Phase Inhibitor), recombinant, without its peptide signal
T1 chain: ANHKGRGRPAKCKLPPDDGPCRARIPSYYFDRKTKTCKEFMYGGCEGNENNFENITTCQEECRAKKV


Target: T1, Ir-CPI (Ixodes ricinus Contact Phase …)

| Protein | activation of factor XI into factor XIa by factor XIIa, reconstituted system with purified factors, chromogenic substrate | activation of prekallikrein into kallikrein by factor XIIa, reconstituted system with purified factors, chromogenic substrate | amidolytic activity (chromogenic substrate S-2302), protease preincubated with Ir-CPI at 1:5 molar ratio | amidolytic activity (chromogenic substrate S-2222), protease preincubated with Ir-CPI at 1:5 molar ratio |
| --- | --- | --- | --- | --- |
| factor XIIa (protein) IPPWEAPKEHKYKAEEHTVVLTVTGEPCHFPFQYHRQLYHKCTHKGRPGPQPWCATTPNFDQDQRWGYCLEPKKVKDHCSKHSPCQKGGTCVNMPSGPHCLCPQHLTGNHCQKEKCFEPQLLRFFHKNEIWYRTEQAAVARCQCKGPDAHCQRLASQACRTNPCLHGGRCLEVEGHRLCHCPVGYTGAFCDVDTKASCYDGRGLSYRGLARTTLSGAPCQPWASEATYRNVTAEQARNWGLGGHAFCRNPDNDIRPWCFVLNRDRLSWEYCDLAQCQTPTQAAPPTPVSPRLHVPLMPAQPAPPKPQPTTRTPPQSQTPGALPAKREQPPSLTRNGPLSCGQRLRKSLSSMTRVVGGLVALRGAHPYIAALYWGHSFCAGSLIAPCWVLTAAHCLQDRPAPEDLTVVLGQERRNHSCEPCQTLAVRSYRLHEAFSPVSYQHDLALLRLQEDADGSCALLSPYVQPVCLPSGAARPSETTLCQVAGWGHQFEGAEEYASFLQEAQVPFLSLERCSAPDVHGSSILPGMLCAGFLEGGTDACQGDSGGPLVCEDQAAERRLTLQGIISWGSGCGDRNKPGVYTDVAYYLAWIREHTVS | Ir-CPI inhibits ... the activation of factor XI into factor XIa by factor XIIa | Ir-CPI inhibits the activation of prekallikrein into kallikrein by factor XIIa | The results obtained did not show any effect of Ir-CPI protein on the amidolytic activity of these factors | – |
| factor Xa (protein) chain 1: ANSFLEEMKKGHLERECMEETCSYEEAREVFEDSDKTNEFWNKYKDGDQCETSPCQNQGKCKDGLGEYTCTCLEGFEGKNCELFTRKLCSLDNGDCDQFCHEEQNSVVCSCARGYTLADNGKACIPTGPYPCGKQTLER chain 2: IVGGQECKDGECPWQALLINEENEGFCGGTILSEFYILTAAHCLYQAKRFKVRVGDRNTEQEEGGEAVHEVEVVIKHNRFTKETYDFDIAVLRLKTPITFRMNVAPACLPERDWAESTLMTQKTGIVSGFGRTHEKGRQSTRLKMLEVPYVDRNSCKLSSSFIITQNMFCAGYDTKQEDACQGDSGGPHVTRFKDTYFVTGIVSWGEGCARKGKYGIYTKVTAFLKWIDRSMKTRGLPKAKSHAPEVITSSPLK | – | – | – | The results obtained did not show any effect of Ir-CPI protein on the amidolytic activity of these factors |
